Target: Peroxisome proliferator-activated receptor alpha (PPARα), wild type, FLAG-tagged (human) (UniProt Q07869)
Chain of UniProt Q07869 (Q07869 whole entry): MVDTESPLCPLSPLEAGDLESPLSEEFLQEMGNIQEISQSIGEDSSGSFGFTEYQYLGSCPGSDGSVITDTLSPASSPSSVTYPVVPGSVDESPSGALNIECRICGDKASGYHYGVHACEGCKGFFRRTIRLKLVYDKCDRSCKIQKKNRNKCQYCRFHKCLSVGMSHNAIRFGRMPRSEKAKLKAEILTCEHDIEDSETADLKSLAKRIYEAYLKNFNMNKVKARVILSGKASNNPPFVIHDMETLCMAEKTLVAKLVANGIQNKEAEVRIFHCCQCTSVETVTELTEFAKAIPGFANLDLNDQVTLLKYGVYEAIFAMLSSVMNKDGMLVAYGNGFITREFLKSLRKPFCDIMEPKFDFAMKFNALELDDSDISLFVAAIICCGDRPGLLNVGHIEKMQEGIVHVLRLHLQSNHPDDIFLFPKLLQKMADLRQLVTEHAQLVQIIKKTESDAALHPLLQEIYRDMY

- PPRE-driven luciferase reporter in HEK293 cells activated by ectopic PPARα; reduction by expression of CtBP2: 53%
Substance: C-terminal binding protein 2 (CtBP2), wild type, HA-tagged (from UniProt P56545 1-445) (natural protein)

From publication PMC10339064
